# Molecular target: TAG-72 (tumor associated antigen TAG-72) (human)
# Assay: binding data (text calls it ED50), method not stated; ELISA on TAG-72 coated plates per Example 7
row,Substance,Kd
1,Humanized CC49 IgG (antibody),2.5 nM
2,"ddCC49, no spacer (huCC49.ΔCH2, unfractionated mixture of 120 kDa and 240 kDa forms) (antibody)",0.8 nM
3,CC49.ΔCH2 [gly/ser] (domain deleted CC49 with Gly/Ser spacer) (antibody),1.8 nM

# Source: patent publication US20070280881A1
